The source of these data is paper PMC11720163, “Position-Dependent Effects of AP Sites Within an hTERT Promoter G-Quadruplex Scaffold on Quadruplex Stability and Repair Activity of the APE1 Enzyme”.

Data set [1] concerns the target APE1 (human AP endonuclease 1), His-tagged (Homo sapiens) (UniProt P27695). The data set can be described thus: BLI. To be noted: 1 mM Ca2+, N = F, BLI: 20 mM Tris-HCl pH 7.5, 100 mM KCl, 1 mM CaCl2, DNA 10-100 nM, temperature not stated, DNA annealed with at least 20 mM KCl.
Data set [2] has as its target APE1 (human AP endonuclease 1), His-tagged (Homo sapiens, UniProt P27695 1-318). The data set can be described thus: BLI; 1 mM Ca2+; BLI: 20 mM Tris-HCl pH 7.5, 100 mM KCl, 1 mM CaCl2; DNA 10-100 nM; temperature not stated; DNA annealed with at least 20 mM KCl. Particulars: protein: recombinant; label: 3'-TAMRA; three stacked intramolecular parallel G4s.

APE1 (human AP endonuclease 1), His-tagged (Homo sapiens), sequence (P27695 whole entry): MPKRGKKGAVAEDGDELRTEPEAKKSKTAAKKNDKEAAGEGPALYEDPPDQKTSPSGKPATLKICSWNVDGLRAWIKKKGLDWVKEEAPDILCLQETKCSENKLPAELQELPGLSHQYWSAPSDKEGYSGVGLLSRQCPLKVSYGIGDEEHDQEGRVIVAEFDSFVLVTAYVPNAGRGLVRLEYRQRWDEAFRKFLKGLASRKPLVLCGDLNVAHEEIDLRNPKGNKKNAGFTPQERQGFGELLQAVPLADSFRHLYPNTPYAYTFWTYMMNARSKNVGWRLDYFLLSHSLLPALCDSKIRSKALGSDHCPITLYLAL
APE1 (human AP endonuclease 1), His-tagged, sequence (P27695 whole entry): as above

In data set [1] (stable AP site analog), “ACCTGGATGCCTATAGGGCGAATTGGGTACCGCTGAATTGCACTGGACTNGATCCTCGATGATCCTAAGCTAAGCTTCAGCTCCAGCCTAAGCCTG [96-RF]” yielded a Kd fold-increase relative to G4 substrates (fold higher Kd than G4 substrates) of 10. In general, Kd refers to the concentration at which binding is half-saturated. On to “GCCGCGGAAAGGAAGGGGAGGGGCTGGGAGGGCCCGGAGGGGGCTGGGCCGGGGACCCGGNAGGGGTCGGGACGGGGCGGGGTCCGCGCGGAGGAG [96-G250F]”, for which the Kd in data set [1] (stable AP site analog) was found to be 3 nM. Same read-out and setting: the value for “GCCGCGGAAAGGAAGGGGAGGGGCTGGGAGGGCCCGGAGGGGGCTGGGCCGGNGACCCGGGAGGGGTCGGGACGGGGCGGGGTCCGCGCGGAGGAG [96-G243F]” was 3 nM; that for “GCCGCGGAAAGGAAGGGGAGGGGCTGGGAGGGCCCGGAGGGGGCTGGGCCGNGGACCCGGGAGGGGTCGGGACGGGGCGGGGTCCGCGCGGAGGAG [96-G242F]” was 3 nM.

Consider “GCCGCGGAAAGGAAGGGGAGGGGCTGGGAGGGCCCGGAGGGGGCTGGGCCGNNGACCCGGGAGGGGTCGGGACGGGGCGGGGTCCGCGCGGAGGAG [96-G242,243F]”, for which the Kd in data set [1] (stable AP site analog (two)) came out at 3 nM. For “GCCGCGGAAAGGAAGGGGAGGGGCTGGGAGGGCCCGGANGGGGCTGGGCCGGGGACCCGGGAGGGGTCGGGACGGGGCGGGGTCCGCGCGGAGGAG [96-G228F]”, the Kd in data set [1] (stable AP site analog) was determined as 3 nM.

B1: 96-G4 (structured_DNA)
DNA: GCCGCGGAAAGGAAGGGGAGGGGCTGGGAGGGCCCGGAGGGGGCTGGGCCGGGGACCCGGGAGGGGTCGGGACGGGGCGGGGTCCGCGCGGAGGAG
In the case of B1, the equilibrium dissociation constant (Kd) in data set [2] came out at 4.2 ± 1.4 nM.
